{"source": "paper PMC9870916", "about": "“The mitochondrial inhibitor IF1 binds to the ATP synthase OSCP subunit and protects cancer cells from apoptosis” (Cell Death & Disease, 2023)", "binders": {"B1": {"name": "IF1-NT (G1-E40) (domain or fragment, human, UniProt Q9UII2 26-65, looked up)", "chain": "GSDQSENVDRGAGSIREAGGAFGKREQAEEERYFRAQSRE", "notes": "Used 15N-labelled (observed) or unlabelled (added in excess); cleavage leaves no additional residues; also called IF1-1NT; N-terminal domain of IF1; source: E. coli BL21(DE3), purified (Ni-HisTrap, Ulp1 cleavage, second Ni-HisTrap, Superdex 75); not shown: His6-SUMO, N-terminal, cleaved"}}, "target": "T1, OSCP-NT (R6-G114) (human, UniProt P48047 29-137)", "T1 construct": "Used unlabelled (added in excess) or 15N-labelled (observed); cleavage leaves no additional residues; also called N-terminal domain of OSCP; source: E. coli BL21(DE3), purified (Ni-HisTrap, Ulp1 cleavage, cation exchange, Superdex 75); not shown: His6-SUMO, N-terminal, cleaved", "T1 sequence (looked up)": "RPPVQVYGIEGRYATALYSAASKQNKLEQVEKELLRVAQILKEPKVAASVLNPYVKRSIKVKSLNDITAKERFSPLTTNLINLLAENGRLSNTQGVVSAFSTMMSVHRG", "assay": "NMR titration; 1H-15N SOFAST-HMQC of 15N-labelled IF1-NT without and with 15-fold molar excess of unlabelled OSCP-NT or OSCP-CT; for OSCP-NT: 30 μM IF1-NT, 450 μM OSCP-NT, 50 mM phosphate, 300 mM NaCl, pH 7.0, 7 °C", "conditions": "both partners purified", "data": [{"binder": "B1", "values": [{"measurement": "binding result", "result": "binds"}]}]}
